# Test results reported in patent US20210130799.
# Legend:
# Experiment in all cases: cleavage_in_vitro
# [1] = target: T1, TtCsm6 (Thermus thermophilus) (UniProt Q53W17); details: cyclic, 3'-5' linked; c(AMP)4 amount required to activate RNase
# T1 sequence: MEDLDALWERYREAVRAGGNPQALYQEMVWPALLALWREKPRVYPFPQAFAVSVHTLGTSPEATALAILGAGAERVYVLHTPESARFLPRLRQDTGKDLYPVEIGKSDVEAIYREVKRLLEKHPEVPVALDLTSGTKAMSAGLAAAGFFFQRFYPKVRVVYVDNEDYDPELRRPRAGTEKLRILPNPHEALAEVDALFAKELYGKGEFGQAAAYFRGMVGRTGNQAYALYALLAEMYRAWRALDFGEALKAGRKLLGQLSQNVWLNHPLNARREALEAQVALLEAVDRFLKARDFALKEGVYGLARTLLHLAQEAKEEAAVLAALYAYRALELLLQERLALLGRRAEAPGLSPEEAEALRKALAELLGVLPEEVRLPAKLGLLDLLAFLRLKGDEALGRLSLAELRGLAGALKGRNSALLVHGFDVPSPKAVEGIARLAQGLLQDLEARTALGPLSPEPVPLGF
# [2] = tested on: StCsm6' (Streptococcus thermophilus DGCC8004)
# [3] = tested on: StCsm6 (Streptococcus thermophilus DGCC8004)
# [4] = cyclic, 3'-5' linked, c(AMP)6 amount sufficient to activate RNase on RNA NS
sequence,measurement,setting,value
AAAA [c(AMP)4],activity,[1],50 nM
AAAAAA [c(AMP)6],activity,[2]; [4],5 nM
same,activity,[3]; [4],0.5 nM
GGGCGGCAAAUUGAGGAUUUCGUAACUGUUUAAUUCUGUUCACUUAUUCCACCAACAAAAGGUGGCGA [RNA NS],activity,"[2]; StCsm6' concentration for degradation with cyclic oligoadenylates, 1 uM needed without, 1 mM EDTA, 37 C",1 nM
same,activity,"[3]; lowest StCsm6 concentration for degradation with 0.5 uM cyclic oligoadenylate mix, 1 uM needed without, 1 mM EDTA, 37 C",1 nM
